{"source": "paper PMC5626551", "key": {"[1]": {"target": "14-3-3ε (UniProt P92177)", "assay": "GST-14-3-3ε pull-down, anti-GFP blot", "conditions": "reference: wild type Ncd-GFP; sites S96"}, "[2]": {"target": "14-3-3ε (UniProt P92177)", "assay": "MBP-14-3-3ε pull-down, anti-pS96 blot", "conditions": "reference: unphosphorylated Ncd tail (control not described in text); sites S96"}, "[3]": {"target": "14-3-3ε (UniProt P92177)", "assay": "MBP-14-3-3ε amylose pull-down of purified tail", "conditions": "reference: Ncd tail without kinase; sites S96"}}, "data": [{"substance": "Ncd (kinesin-14) (from UniProt P20480) S96A", "values": [{"measurement": "binding against the reference", "setting": "[1]", "result": "weaker"}]}, {"substance": "Ncd (kinesin-14) tail, 58-192 (from UniProt P20480) Ncd tail after PKD2 and cold ATP", "values": [{"measurement": "binding against the reference", "setting": "[2]", "result": "stronger"}]}, {"substance": "Ncd (kinesin-14) tail, 58-192 (from UniProt P20480) PKD2-phosphorylated Ncd tail", "values": [{"measurement": "binding against the reference", "setting": "[3]", "result": "stronger"}]}]}
